Experimental data taken from patent publication US20140030725.

Biological target: MMP-2 sensor (1A5 variant backbone with the human MMP-2 recognition site PLGMWSR, N-terminal GST tag with TEV site, C-terminal 5xHQ tag)

B1: Activated MMP-2 (Anaspec) (protein)
chain: YNFFPRKPKWDKNQITYRIIGYTPDLDPETVDDAFARAFQVWSDVTPLRFSRIHDGEADIMINFGRWEHGDGYPFDGKDGLLAHAFAPGTGVGGDSHFDDDELWTLGEGQVVRVKYGNADGEYCKFPFLFNGKEYNSCTDTGRSDGFLWCSTTYNFEKDGKYGFCPHEALFTMGGNAEGQPCKFPFRFQGTSYDSCTTEGRTDGYRWCGTTEDYDRDKKYGFCPETAMSTVGGNSEGAPCVFPFTFLGNKYESCTSAGRSDGKMWCATTANYDDDRKWGFCPDQGYSLFLVAAHEFGHAMGLEHSQDPGALMAPIYTYTKNFRLSQDDIKGIQELYGASPDIDLGTGPTPTLGPVTPEICKQDIVFDGIAQIRGEIFFFKDRFIWRTVTPRDKPMGPLLVATFWPELPEKIDAVYEAPQEEKAVFFAGNEYWIYSASTLERGYPKPLTSLGLPPDVQRVDAAFNWSKNKKTYIFAGDKFWRYNEVKKKMDPGFPKLIADAWNAIPDNLDAVVDLQGGGHSYFFKGAYYLKLENQSLKSVKFGSIKSDWLGC
- luminescence, fold increase over control (background from MMP-2 sensor); least amount of MMP-2 detected: can be used to detect as little as 0.75 ng protein
